These are literature values, as cited in patent US11820970B2, “High throughput protein-protein interaction screening in yeast liquid culture” (University of Washington, priority 2016, dated 2023).

In data set [1] the target is T1, BclW (Homo sapiens, UniProt Q92843).
T1 sequence (Q92843 1-193): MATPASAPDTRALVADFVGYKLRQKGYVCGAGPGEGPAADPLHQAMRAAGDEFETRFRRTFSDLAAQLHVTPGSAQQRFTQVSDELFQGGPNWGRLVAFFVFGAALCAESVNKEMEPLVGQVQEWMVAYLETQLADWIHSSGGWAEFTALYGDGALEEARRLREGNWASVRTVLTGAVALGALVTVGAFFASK
Conditions: binder vs BclW; known affinities; read-out: AFFINITY

The target of data set [2] is Mcl1 (Homo sapiens, UniProt Q07820). To be noted: binder vs Mcl1; known affinities; read-out: AFFINITY
The target of data set [3] is BclXL (Homo sapiens, UniProt Q07817). To be noted: binder vs BclXL; known affinities; read-out: AFFINITY
The target in data set [4] is T2, Bfl1 (Homo sapiens, UniProt Q16548).
T2 sequence (Q16548 1-175): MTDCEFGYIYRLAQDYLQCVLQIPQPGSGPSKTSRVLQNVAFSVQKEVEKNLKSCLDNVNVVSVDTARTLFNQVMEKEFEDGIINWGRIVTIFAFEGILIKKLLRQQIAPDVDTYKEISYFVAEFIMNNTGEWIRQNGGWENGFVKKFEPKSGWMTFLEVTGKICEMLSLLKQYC
Conditions: binder vs Bfl1; known affinities; read-out: AFFINITY

Data set [5] deals with T3, BclB (Homo sapiens, UniProt Q9HD36).
T3 sequence (Q9HD36 1-204): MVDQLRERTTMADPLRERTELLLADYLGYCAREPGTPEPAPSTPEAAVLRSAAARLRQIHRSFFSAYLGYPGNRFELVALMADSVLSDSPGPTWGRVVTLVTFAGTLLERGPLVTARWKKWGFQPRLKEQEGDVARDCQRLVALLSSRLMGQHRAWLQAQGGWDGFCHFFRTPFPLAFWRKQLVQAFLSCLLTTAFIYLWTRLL
Conditions: binder vs BclB; known affinities; read-out: AFFINITY

Data set [6] deals with Bcl2 (Homo sapiens, UniProt P10415). To be noted: binder vs Bcl2; known affinities; read-out: AFFINITY
Chain of Bcl2 (P10415 whole entry, species assumed): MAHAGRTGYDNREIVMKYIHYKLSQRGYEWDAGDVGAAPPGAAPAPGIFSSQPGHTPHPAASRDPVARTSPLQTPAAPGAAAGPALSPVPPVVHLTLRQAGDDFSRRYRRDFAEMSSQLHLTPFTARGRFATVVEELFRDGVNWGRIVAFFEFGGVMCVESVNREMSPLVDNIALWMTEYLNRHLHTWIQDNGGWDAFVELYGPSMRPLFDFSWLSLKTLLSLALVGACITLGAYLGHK

Chain of Mcl1 (Q07820 whole entry, species assumed): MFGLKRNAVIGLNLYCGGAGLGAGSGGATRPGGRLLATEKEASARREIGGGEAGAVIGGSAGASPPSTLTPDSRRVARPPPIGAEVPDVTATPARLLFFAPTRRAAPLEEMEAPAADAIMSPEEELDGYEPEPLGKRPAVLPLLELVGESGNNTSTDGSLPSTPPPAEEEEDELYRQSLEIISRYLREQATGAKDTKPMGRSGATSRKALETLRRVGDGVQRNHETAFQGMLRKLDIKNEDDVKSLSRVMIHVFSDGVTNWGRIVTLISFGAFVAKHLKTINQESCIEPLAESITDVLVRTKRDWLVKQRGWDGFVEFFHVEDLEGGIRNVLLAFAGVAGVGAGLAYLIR
Chain of BclXL (Q07817 whole entry, species assumed): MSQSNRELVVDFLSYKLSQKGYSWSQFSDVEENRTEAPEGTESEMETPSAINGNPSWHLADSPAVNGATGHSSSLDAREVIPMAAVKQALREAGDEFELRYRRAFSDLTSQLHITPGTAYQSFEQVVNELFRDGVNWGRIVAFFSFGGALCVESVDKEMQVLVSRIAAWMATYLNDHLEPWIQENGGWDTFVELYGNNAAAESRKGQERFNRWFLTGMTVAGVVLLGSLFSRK

B1: B-CDP01: de novo (engineered) binding protein for Bcl2 family homologues, displayed as SAP (protein)
chain: ADPKKVLDKAKDQAENRVRELKQELERLYKEARKLDLTQEMRRKLEWRYIAAMLKAIGDILNAIAQAENEADKLKKAGLVNSQQLDELRRRLEELAKEAARKAHDYGREFQLKLEY
On to B1, for which the Kd in data set [1] is 2010 nM; in data set [2] it was 0.46 nM; in data set [3], 20.2 nM; in data set [4] it was 518 nM; in data set [5] it was 8.33 nM; in data set [6], 17.3 nM.

B2: X-CDP07: de novo (engineered) binding protein for Bcl2 family homologues, displayed as SAP (protein)
chain: ADPKKVLDKAKDRAENVVRKLKKELEELYKEARKLDLTQEMRDRIRLAAIAARIAAFGDIFHAIMEALEEARKLKKAGLVNSQQLDELKRRLEELDEEAAQRAEKLGKEFELKLEY
Turning to B2, the Kd in data set [1] is 14.9 nM; in data set [2], 17.4 nM; in data set [3], 0.59 nM; in data set [4] it was 7050 nM; in data set [5], 107 nM; in data set [6], 3.81 nM.
